Experimental data published in article PMC5906670, “Structural basis of epilepsy-related ligand–receptor complex LGI1–ADAM22” (Nature Communications, 2018).
Each block holds one binder with its values, some of them ahead of it.

What was measured:
[1] = molecular target: T1, ADAM22 ECD (non-tagged) (human, UniProt Q9P0K1-1 26-729, p.Pro81Arg); test: SEC-MALS; co-purified complexes, 1 g L^−1, ENrich SEC 650 column, 20 mM Tris-HCl (pH 7.5), 500 mM NaCl; conditions: both partners purified
T1 construct: signal peptide in the construct; ADAM22, human, cDNA as NM_021723 except the p.Pro81Arg polymorphism in the Pro domain; source: Expi293F, transient, co-expressed with His6-tagged LGI1; purified as the complex (Ni-NTA, SEC)
T1 sequence (looked up): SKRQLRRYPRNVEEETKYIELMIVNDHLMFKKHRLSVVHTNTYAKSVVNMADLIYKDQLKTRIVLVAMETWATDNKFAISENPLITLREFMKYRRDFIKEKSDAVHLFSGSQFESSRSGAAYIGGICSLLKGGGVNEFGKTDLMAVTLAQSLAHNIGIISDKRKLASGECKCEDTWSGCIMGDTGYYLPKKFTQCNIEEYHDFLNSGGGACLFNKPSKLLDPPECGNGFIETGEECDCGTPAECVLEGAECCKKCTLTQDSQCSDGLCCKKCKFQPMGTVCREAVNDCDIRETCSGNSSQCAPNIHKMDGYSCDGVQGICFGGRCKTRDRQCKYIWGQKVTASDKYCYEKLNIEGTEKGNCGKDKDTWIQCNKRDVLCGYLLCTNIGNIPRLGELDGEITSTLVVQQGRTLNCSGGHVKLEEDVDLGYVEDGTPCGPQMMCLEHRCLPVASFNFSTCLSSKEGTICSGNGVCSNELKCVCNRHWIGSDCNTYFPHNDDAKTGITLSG

[2] = molecular target: the molecule itself; test: SEC-MALS; co-purified complexes, 1 g L^−1, ENrich SEC 650 column, 20 mM Tris-HCl (pH 7.5), 150 mM NaCl (standard condition)
[3] = molecular target: the molecule itself; test: SEC-MALS; co-purified complexes, 1 g L^−1, ENrich SEC 650 column, 20 mM Tris-HCl (pH 7.5), 500 mM NaCl
[4] = molecular target: the molecule itself; test: crystal structure; LGI1^R470A–ADAM22 ECD complex, co-expressed and co-purified; sitting drop, 20 °C, 10% PEG8000, 0.1 M zinc acetate, 0.1 M MES-NaOH (pH 6.0); 7.13 Å
[5] = molecular target: the molecule itself; test: SEC-SAXS; LGI1–ADAM22 complex (LGI1^R470A) at 5.7 or 8.2 g L^−1, ENrich SEC 650, 20 mM Tris-HCl (pH 7.5), 150 or 500 mM NaCl, 293 K; scattering curve compared with curves of the 2:2 crystal structure and a 3:3 model
[6] = molecular target: T1, ADAM22 ECD (non-tagged); test: SEC-MALS; co-purified complexes, 1 g L^−1, ENrich SEC 650 column, 20 mM Tris-HCl (pH 7.5), 150 mM NaCl (standard condition); conditions: both partners purified
[7] = molecular target: T2, ADAM22 ECD (C-terminal His6 tag) (human, UniProt Q9P0K1-1 26-729, p.Pro81Arg); test: as above; conditions: both partners purified
T2 construct: signal peptide in the construct; ADAM22, human, cDNA as NM_021723 except the p.Pro81Arg polymorphism in the Pro domain; also called ADAM22 ectodomain; source: Expi293F, transient, co-expressed with LGI1 EPTP-His6; purified from culture medium (Ni-NTA, SEC)
T2 sequence (looked up): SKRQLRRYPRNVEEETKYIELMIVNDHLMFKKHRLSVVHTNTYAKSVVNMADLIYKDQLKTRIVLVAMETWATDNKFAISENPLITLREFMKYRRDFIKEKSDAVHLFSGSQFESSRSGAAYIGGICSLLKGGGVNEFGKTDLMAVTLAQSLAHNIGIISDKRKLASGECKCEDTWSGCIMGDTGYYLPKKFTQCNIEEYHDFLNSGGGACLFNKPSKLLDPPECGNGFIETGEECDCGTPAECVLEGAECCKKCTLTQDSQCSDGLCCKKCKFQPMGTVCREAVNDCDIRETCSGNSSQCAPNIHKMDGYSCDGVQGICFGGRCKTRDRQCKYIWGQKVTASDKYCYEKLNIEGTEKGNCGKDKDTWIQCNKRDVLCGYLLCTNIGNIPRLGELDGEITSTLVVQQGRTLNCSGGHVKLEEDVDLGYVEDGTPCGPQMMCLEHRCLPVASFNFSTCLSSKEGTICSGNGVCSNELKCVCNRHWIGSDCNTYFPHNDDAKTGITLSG

stoichiometry N [1]: 1 LGI1 per ADAM22 ECD (2:2)
B1: full-length LGI1 (residues 37–557), C-terminal His6 (ligand, human, UniProt O95970-1 37-557, looked up)
chain: PAKPKCPAVCTCTKDNALCENARSIPRTVPPDVISLSFVRSGFTEISEGSFLFTPSLQLLLFTSNSFDVISDDAFIGLPHLEYLFIENNNIKSISRHTFRGLKSLIHLSLANNNLQTLPKDIFKGLDSLTNVDLRGNSFNCDCKLKWLVEWLGHTNATVEDIYCEGPPEYKKRKINSLSSKDFDCIITEFAKSQDLPYQSLSIDTFSYLNDEYVVIAQPFTGKCIFLEWDHVEKTFRNYDNITGTSTVVCKPIVIETQLYVIVAQLFGGSHIYKRDSFANKFIKIQDIEILKIRKPNDIETFKIENNWYFVVADSSKAGFTTIYKWNGNGFYSHQSLHAWYRDTDVEYLEIVRTPQTLRTPHLILSSSSQRPVIYQWNKATQLFTNQTDIPNMEDVYAVKHFSVKGDVYICLTRFIGDSKVMKWGGSSFQDIQRMPSRGSMVFQPLQINNYQYAILGSDYSFTQVYNWDAEKAKFVKFQELNVQAPRSFTHVSINKRNFLFASSFKGNTQIYKHVIVDLSA
notes: LGI1, human, cDNA NM_005097; 'full length, residues 37–557' (without the signal peptide); PDB 5Y31 holds the R470A mutant of the same limits; also called LGI1^WT; source: Expi293F, transient, co-expressed with non-tagged ADAM22 ECD; purified from culture medium (Ni-NTA, SEC)
stoichiometry N [2]: 3 LGI1 chains in the assembly
stoichiometry N [3]: 2 LGI1 chains in the assembly

B2: LGI1^R470A (residues 37–557), C-terminal His6 (ligand, human, UniProt O95970-1 37-557, looked up)
chain: PAKPKCPAVCTCTKDNALCENARSIPRTVPPDVISLSFVRSGFTEISEGSFLFTPSLQLLLFTSNSFDVISDDAFIGLPHLEYLFIENNNIKSISRHTFRGLKSLIHLSLANNNLQTLPKDIFKGLDSLTNVDLRGNSFNCDCKLKWLVEWLGHTNATVEDIYCEGPPEYKKRKINSLSSKDFDCIITEFAKSQDLPYQSLSIDTFSYLNDEYVVIAQPFTGKCIFLEWDHVEKTFRNYDNITGTSTVVCKPIVIETQLYVIVAQLFGGSHIYKRDSFANKFIKIQDIEILKIRKPNDIETFKIENNWYFVVADSSKAGFTTIYKWNGNGFYSHQSLHAWYRDTDVEYLEIVRTPQTLRTPHLILSSSSQRPVIYQWNKATQLFTNQTDIPNMEDVYAVKHFSVKGDVYICLTRFIGDSKVMKWGGSSFQDIQAMPSRGSMVFQPLQINNYQYAILGSDYSFTQVYNWDAEKAKFVKFQELNVQAPRSFTHVSINKRNFLFASSFKGNTQIYKHVIVDLSA
notes: LGI1, human, cDNA NM_005097, residues 37-557; also called LGI1 (in the 'LGI1–ADAM22 complex'); source: Expi293F, transient, co-expressed with non-tagged ADAM22 ECD; purified as the complex (Ni-NTA, SEC)
stoichiometry N [4]: 2 LGI1 chains in the assembly
stoichiometry N [5]: 3 LGI1 chains in the assembly

stoichiometry N [6]: 1 LGI1 per ADAM22 ECD
B3: LGI1^R474Q (residues 37–557), C-terminal His6 (ligand, human, UniProt O95970-1 37-557, looked up)
chain: PAKPKCPAVCTCTKDNALCENARSIPRTVPPDVISLSFVRSGFTEISEGSFLFTPSLQLLLFTSNSFDVISDDAFIGLPHLEYLFIENNNIKSISRHTFRGLKSLIHLSLANNNLQTLPKDIFKGLDSLTNVDLRGNSFNCDCKLKWLVEWLGHTNATVEDIYCEGPPEYKKRKINSLSSKDFDCIITEFAKSQDLPYQSLSIDTFSYLNDEYVVIAQPFTGKCIFLEWDHVEKTFRNYDNITGTSTVVCKPIVIETQLYVIVAQLFGGSHIYKRDSFANKFIKIQDIEILKIRKPNDIETFKIENNWYFVVADSSKAGFTTIYKWNGNGFYSHQSLHAWYRDTDVEYLEIVRTPQTLRTPHLILSSSSQRPVIYQWNKATQLFTNQTDIPNMEDVYAVKHFSVKGDVYICLTRFIGDSKVMKWGGSSFQDIQRMPSQGSMVFQPLQINNYQYAILGSDYSFTQVYNWDAEKAKFVKFQELNVQAPRSFTHVSINKRNFLFASSFKGNTQIYKHVIVDLSA
notes: LGI1, human, cDNA NM_005097, residues 37-557; R474Q is a human ADLTE mutation; source: Expi293F, transient, co-expressed with ADAM22 ECD; purified as the complex (Ni-NTA, SEC)

stoichiometry N [7]: 1 LGI1 EPTP per ADAM22 ECD
B4: LGI1 EPTP (domain or fragment, human, UniProt O95970-1 224-557, looked up)
chain: TEFAKSQDLPYQSLSIDTFSYLNDEYVVIAQPFTGKCIFLEWDHVEKTFRNYDNITGTSTVVCKPIVIETQLYVIVAQLFGGSHIYKRDSFANKFIKIQDIEILKIRKPNDIETFKIENNWYFVVADSSKAGFTTIYKWNGNGFYSHQSLHAWYRDTDVEYLEIVRTPQTLRTPHLILSSSSQRPVIYQWNKATQLFTNQTDIPNMEDVYAVKHFSVKGDVYICLTRFIGDSKVMKWGGSSFQDIQRMPSRGSMVFQPLQINNYQYAILGSDYSFTQVYNWDAEKAKFVKFQELNVQAPRSFTHVSINKRNFLFASSFKGNTQIYKHVIVDLSA
notes: LGI1, human, cDNA NM_005097; EPTP domain, residues 224-557; also called C-terminal epitempin-repeat (EPTP) domain of LGI1; EAR domain; source: Expi293F, transient, co-expressed with His6-tagged ADAM22 ECD; purified from culture medium (Ni-NTA, SEC)
